# Measurements from article PMC7370943.
# How the values were obtained:
# [1] = target: T1, recombinant human IL-33 (human)
# T1 sequence (O95760 whole entry, looked up): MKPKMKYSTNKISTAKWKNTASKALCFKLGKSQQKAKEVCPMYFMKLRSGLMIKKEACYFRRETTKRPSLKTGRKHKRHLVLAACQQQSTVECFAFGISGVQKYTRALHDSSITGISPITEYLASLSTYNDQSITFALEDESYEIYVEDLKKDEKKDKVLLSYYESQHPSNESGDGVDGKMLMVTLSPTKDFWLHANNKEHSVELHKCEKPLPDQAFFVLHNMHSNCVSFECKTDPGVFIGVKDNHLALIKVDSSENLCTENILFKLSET
# [2] = target: recombinant human IL-13 (human) (UniProt P35225)
# Chain of UniProt P35225 (P35225 25-146): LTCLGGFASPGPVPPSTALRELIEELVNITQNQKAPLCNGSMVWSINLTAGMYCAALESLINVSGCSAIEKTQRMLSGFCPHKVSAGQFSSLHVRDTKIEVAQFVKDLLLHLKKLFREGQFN
Substance,IC50 of inhibition of IL-33-induced NF-κB luciferase reporter activity in HEK293T cells transfected with human ST2; IL-33 pre-incubated 30 min with the trap (blocks IL-33 acting on ST2 of the cells) [1] [pM],IC50 of inhibition of IL-13-induced STAT6-dependent luciferase activity in HEK293T cells transfected with human IL-4Rα and IL-13Rα1; cytokine pre-incubated with the trap [2] [pM]
human IL-33trap with 7xGGS linker (sIL-1RAcP-7xGGS-sST2) (from UniProt Q01638 19-328) (receptor),194,–
human IL-33trap without GGS linker fused to human IgG1 Fc (sIL-1RAcP-sST2-Fc) (from UniProt Q01638 19-328) (Fc fusion),90,–
human IL-33trap with 7xGGS linker and human IgG1 Fc (from UniProt Q9NPH3 21-367; Q01638 19-328) (Fc fusion),67,–
human IL-4/13trap (from UniProt P78552 22-343; P24394 26-232) (receptor),–,434
human IL-33trap with 12xGGS linker (sIL-1RAcP-12xGGS-sST2) (from UniProt Q01638 19-328) (receptor),42,–
human IL-33trap without Fc and GGS linker (sIL-1RAcP-sST2) (from UniProt Q01638 19-328) (receptor),748,–
human IL-33trap with 12xGGS linker and human IgG1 Fc (from UniProt Q9NPH3 21-367; Q01638 19-328) (Fc fusion),57,–
